Patent US20250074994A1 (Molecular Partners, published 2025)

T1: biotinylated recombinant human CD70 (extracellular domain, Fc tag) (human, UniProt P32970 52-193, chemically biotinylated using 5-fold excess of Biotin)
T1 construct: Bought from ACROBiosystems; also called bio.hCD70; Bio.CD70; not shown: C-terminal Fc Tag of the bought protein (ACROBiosystems)
T1 sequence: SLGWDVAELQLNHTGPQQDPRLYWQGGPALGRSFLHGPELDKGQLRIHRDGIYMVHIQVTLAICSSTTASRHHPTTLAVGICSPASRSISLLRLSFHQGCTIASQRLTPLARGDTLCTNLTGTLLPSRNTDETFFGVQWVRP

B1: DARPin® protein #5 (designed binder)
chain: MRGSHHHHHHGSDLGFKLLQAALRGQLDEVRILLKAGADVNAKDQLGTTPLHLAAHYGHLEIVEVLLKAGADVNAKDVWGDTPLHLAAQHGHLEIVEVLLKAGADVNAQDRAGYTPADLAAQEGHEDIAEVLQKAA
B2: DARPin® protein #10 (designed binder)
chain: MRGSHHHHHHGSDLGFKLLNAAVQGQDDEVRILLAAGADVNAKDLRGTTPLHLAAQFGHLEIVEVLLKAGADVNAKDVWGATPLHLAAEHGHLEIVEVLLKAGADVNAQDNAGKTPADLAAQDGHEDIAEVLQKAA
B3: DARPin® protein #3 (designed binder)
chain: MRGSHHHHHHGSDLGQKLLHAAQVGQDDEVRILLAAGADVNAKDTRGITPLHDTAFYGHLEIVEVLLKAGADVNAKDVTGWTPLHLAAYTGHLEIVEVLLKAGADVNAQDNEGITPADLAAFHGHEDIAEVLQKAA
B4: DARPin® protein #7 (designed binder)
chain: MRGSHHHHHHGSDLGAKLLNAATVGQDDEVRILLAAGADVNAKDWSGQTPLHHAAYTGHLEIVEVLLKAGADVNAKDSWGWTPLHLAAYTGHLEIVEVLLKAGADVNAQDKEGSTPADLAAFHGHEDIAEVLQKAA
B5: DARPin® protein #8 (designed binder)
chain: MRGSHHHHHHGSDLGHKLLFAAVRGQDDEVRILLAAGADVNAKDTRGVTPLHLAASWGHLEIVEVLLKAGADVNAKDELGNTPLHLAATDGHLEIVEVLLKAGADVNAQDWVGKTPADLAAWWGHEDIAEVLQKAA
B6: DARPin® protein #6 (designed binder)
chain: MRGSHHHHHHGSDLGKKLLEAARAGQDDEVRILLAAGTDVNAKDARGSTPLHVAAIHGHLEIVEVLLKAGADVNAKDTWGWTPLHLAAYAGHLEIVEVLLKAGADVNAQDEEGQTPADLAAFHGHEDIAEVLQKAA
B7: DARPin® protein #11 (designed binder)
chain: MRGSHHHHHHGSDLGIKLLYAAYFGQDDEVRILLAAGADVNAKDWLGKTPLHLAATEGHLEIVEVLLKAGADVNAKDEWGETPLHKAAQEGHLEIVEVLLKAGADVNAQDSAGYTPADLAAQVGHEDIAEVLQKAA
B8: DARPin® protein #12 (designed binder)
chain: MRGSHHHHHHGSDLGKKLLQAARAGQLDEVRELLKAGADVNAKDQTGYTPLHLAARHGHLEIVEVLLKAGADVNAKDEYGWTPLHIAAFIGPLEIVEVLLKAGADVNAKDEQGATPLHLAAWQGHLEIVEVLLKAGADVNAQDKSGKTPADLAARAGHQDIAEVLQKAA

Target: T1, biotinylated recombinant human CD70 …
Assay: SPR (ProteOn XPR36), bio.CD70 immobilized on NLC chip, DARPin as analyte
Description: The binding affinities of purified ankyrin repeat proteins on recombinant human CD70 target were analyzed using a ProteOn XPR36 instrument (BioRad) and the measurement was performed according standard procedures known to the person skilled in the art.
Bio.CD70 was immobilized on a NLC chip and the ankyrin repeat proteins were applied as titration with a starting concentration of 100 nM and then titrated down to 1.2 nM. The signals were double referenced against the PBST-treated control lane of L1 and A6. Analyte injection was performed for 120 s followed by a dissociation for 1500 s.

Kd [nM]	Binder
5.8	B1
16	B2
3.1	B3
5.7	B4
1.1	B5
43	B6
3	B7
28	B8
